According to paper PMC13028475:

Molecular target: FPM13 (Francisella Periplasmic Metalloprotein, 13 kDa), native protein of Francisella novicida (Francisella novicida)
Experiment: cryo-EM structure

FPM13 (Francisella Periplasmic Metalloprotein, 13 kDa), native protein of Francisella novicida (natural protein)
stoichiometry N: 18
